Measurements from patent publication US20220298214A1.

Biological target: GLP-1 receptor (UniProt P43220)
Experiment: cell-based or functional assay

Sequence of GLP-1 receptor (P43220 24-463 limits assumed): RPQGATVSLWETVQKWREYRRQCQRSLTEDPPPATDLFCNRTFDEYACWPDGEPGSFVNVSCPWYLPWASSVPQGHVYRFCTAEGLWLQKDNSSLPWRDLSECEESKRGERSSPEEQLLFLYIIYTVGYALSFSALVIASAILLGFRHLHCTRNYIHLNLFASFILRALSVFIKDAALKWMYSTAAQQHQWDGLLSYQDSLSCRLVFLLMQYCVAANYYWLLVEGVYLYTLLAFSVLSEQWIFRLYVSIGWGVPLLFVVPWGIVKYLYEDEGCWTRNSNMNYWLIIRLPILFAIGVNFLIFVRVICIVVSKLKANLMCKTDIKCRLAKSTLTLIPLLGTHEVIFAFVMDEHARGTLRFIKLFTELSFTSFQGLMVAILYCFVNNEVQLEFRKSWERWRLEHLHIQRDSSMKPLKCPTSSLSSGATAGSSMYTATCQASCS

EC50 value (pM), luciferase reporter gene (CRE-Luc) in HEK293-GLP1R-CRE-Luc cells: 41.2 pM
Substance: Dulaglutide (Fc fusion)
